Results reported in patent publication US20240285785A1, “TARGETING SORTILIN” (priority 2022, published 2024).

What was measured:
[1] = Maximum tolerated dose (MTD) study; format: in vivo, BALB/c Nude mice; settings: for body weight loss: after 48 hrs
Method: BALB/c Nude mice, female, 6-8 weeks, weighing approximately 18-22 g were purchased from the Shanghai SLAC Laboratory Animal Co., LTD. MTD studies were conducted at WuXi AppTec and the care and use of animals was conducted in accordance with the regulations of the Association for Assessment and Accreditation of Laboratory Animal Care (AAALAC). Two MTD studies were performed (a) a low dose study with doses ranging from 0.1, 0.5, 1 and 3 mg/kg and (b) a high dose study with doses ranging from 3, 5, 10 mg/kg. Dosing volume was determined based on body weight (10 ul/g) and PDCs were dissolved in 25 mM Histidine 10% sucrose pH 7 and administered i.v. at a single dose at day 0. The treatment and observation were conducted up to 7 days and MTD was defined by ≥20% body weight loss. Body weights were measured daily, death and observed clinical signs were recorded.
Doses of 3, 5, and 10 mg/kg were administered. MTD was defined by ≥20% body weight loss and body weight measured daily.

SORT1 = target: T1, SORT1 (Homo sapiens, UniProt Q99523); assay: Competition binding in FP; settings: FP competition binding assays, PDC vs parent peptide
T1 construct: Human SORT1 (78-755)-His (Acrobiosystems); His (C); purchased Acrobiosystems SON—H52H5
T1 sequence (Q99523 78-755): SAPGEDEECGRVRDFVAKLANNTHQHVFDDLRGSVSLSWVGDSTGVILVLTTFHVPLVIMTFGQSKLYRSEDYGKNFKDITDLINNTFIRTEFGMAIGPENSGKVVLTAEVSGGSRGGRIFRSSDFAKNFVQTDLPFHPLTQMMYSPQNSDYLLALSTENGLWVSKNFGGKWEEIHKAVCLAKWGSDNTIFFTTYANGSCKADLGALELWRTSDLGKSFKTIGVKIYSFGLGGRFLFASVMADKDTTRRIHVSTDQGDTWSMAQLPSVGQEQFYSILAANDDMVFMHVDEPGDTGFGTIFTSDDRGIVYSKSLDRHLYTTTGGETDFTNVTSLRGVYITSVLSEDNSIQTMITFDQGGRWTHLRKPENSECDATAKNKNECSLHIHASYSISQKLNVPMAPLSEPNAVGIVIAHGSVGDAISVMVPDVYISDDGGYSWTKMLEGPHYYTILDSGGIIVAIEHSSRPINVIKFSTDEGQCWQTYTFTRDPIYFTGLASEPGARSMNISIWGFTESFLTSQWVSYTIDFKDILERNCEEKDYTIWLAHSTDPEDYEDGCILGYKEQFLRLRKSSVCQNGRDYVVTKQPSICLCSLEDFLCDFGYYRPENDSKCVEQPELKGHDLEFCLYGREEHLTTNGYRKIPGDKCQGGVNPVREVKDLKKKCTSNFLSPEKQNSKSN
Method: Competition binding studies were conducted in a similar manner to the direct binding protocol. Unlabeled peptides were prepared with a 12-point, two-fold dilution series in a V-bottom 96-well plate for a total volume of 25 μL with a starting concentration of 50 μM. A 10× working stock of the FAM labeled peptide was prepared as described for the Direct binding experiment.
An aliquot of 20 μL of the 500 nM working solution was then added to 2.5 μL of the FAM-peptide, after which 2.5 μL of the unlabeled peptide dilution series was added and mixed by pipetting in a V-bottom 96-well plate. Samples were allowed to incubate for 15 minutes, then 10 μL of the mixture was transferred to an opaque black 384-well non-binding FP plate (Corning® Low Volume 384-well Black Flat Bottom Polystyrene NBS Microplate, #3820) in technical duplicates. The 384-well plate was then centrifuged 1 min, 4000 rpm and fluorescence and polarization of dye measured on a Biotek Synergy Neo2 plate reader using the same settings as for the Direct Binding experiment. Data were then fitted to a One site—Fit logIC50 curve in GraphPad to calculate the IC50.

[2] = CMC formulation buffer screen (shake flask solubility); format: physicochemical; settings: 0.5 mg/mL
Method: Exemplary conjugate agents (e.g., sortilin binding agents), referred to in the present Example as “peptide drug conjugates” or “PDCs” were assessed in a formulation screen to determine an appropriate vehicle for in vivo studies and to assess precipitation risk. PDC solutions were made up to 0.5 mg/mL in the following buffers: 25 mM Histidine 10% sucrose pH 7, 50 mM acetate/acetic acid, 10% sucrose pH 5, 1×PBS pH 7.4, Saline, 50 mM HEPES 10% sucrose pH 7. Solubility was assessed using a shake flask method and the test compound concentration of the filtrate was confirmed using HPLC-UV.
The following buffers were screened: 25 mM Histidine 10% sucrose pH 7, 50 mM acetate/acetic acid, 10% sucrose pH 5, 1×PBS pH 7.4, Saline, 50 mM HEPES 10% sucrose pH 7. The PDCs were soluble in all buffers tested (Table 1), and we proceed to use 25 mM Histidine, 10% sucrose pH 7 as our buffer of choice for our in vivo studies.

[3] = Murine hematotoxicity assay; format: in vivo, BALB/c mice; settings: 3 mg/kg i.v. QW×4, compared to vehicle or MMAE treatment
Method: Murine hematotoxicity experiments were conducted at Charles River Laboratories and the care and use of animals was conducted in accordance with the regulations of the Association for Assessment and Accreditation of Laboratory Animal Care (AAALAC). Wild type BALB/c, female, 7-8 weeks, weighing approximately 18-22 g were randomized and dosed intravenously with control or test articles at a QW×4 schedule. Dosing volume was adjusted based on body weight and was administered at 10 mL/Kg. PDCs were dissolved in 25 mM Histidine 10% sucrose pH 7 and 3 mg/kg was administered. Free MMAE payload was also tested, and similarly dissolved in 25 mM Histidine 10% sucrose pH 7 and administered to the mice at a dose of […] by i.v. injection at a QW×4 schedule. 3 days following each dose, 150 μL of whole blood was collected via submandibular method and placed in K2 EDTA tubes stored on ice. Blood neutrophil counts were performed on the day of collection by IDEXX labs. Body weights were recorded twice a week until study endpoint.
As outlined in the material and methods of Example 1, wild type BALB/c, female, 7-8 weeks, weighing approximately 18-22 g were randomized and dosed intravenously with control or test articles at a QW×4 schedule. Dosing volume was adjusted based on body weight and was administered at 10 ml/Kg. […] Free MMAE payload was also tested, and similarly dissolved in 25 mM Histidine 10% sucrose pH 7 and administered to the mice at a dose of […] by i.v. injection at a QW×4 schedule. 3 days following each dose, 150 μL of whole blood was collected via submandibular method and placed in K2 EDTA tubes stored on ice. Blood neutrophil counts were performed on the day of collection by IDEXX labs. Body weights were recorded twice a week until study endpoint.

For `CC[C@H](C)[C@@H]([C@@H](CC(=O)N1CCC[C@H]1[C@H](OC)[C@@H](C)C(=O)N[C@H](C)[C@@H](O)c1ccccc1)OC)N(C)C(=O)[C@@H](NC(=O)[C@H](C(C)C)N(C)C(=O)OCc1ccc(NC(=O)[C@H](CCCNC(N)=O)NC(=O)[C@@H](NC(=O)CCCC(=O)NCCC(=O)N(C)CC(=O)N(C)CC(=O)N(C)CC(=O)N(C)CC(=O)N[C@@H](C)C(=O)N2CCC[C@H]2C(=O)N[C@@H](CCCNC(=N)N)C(=O)N[C@@H](Cc2c[nH]c3ccccc23)C(=O)N[C@@H](CC(=O)O)C(=O)N[C@@H](C)C(=O)N2CCC[C@H]2C(=O)N[C@@H](CC(C)C)C(=O)N[C@@H](CCCNC(=N)N)C(=O)N[C@@H](CC(=O)O)C(=O)N2CCC[C@H]2C(=O)N[C@@H](C)C(=O)N[C@@H](CC(C)C)C(=O)N[C@@H](CCCNC(=N)N)C(=O)N[C@@H](CCC(N)=O)C(=O)N[C@@H](CC(C)C)C(=O)N[C@@H](CC(C)C)C(=O)O)C(C)C)cc1)C(C)C` [PRGN_WT_PDC], the body weight loss ([1]; 5 mg/kg single i.v. dose, recovered at Day 7) was ~15%, the “toxicity” value ([1]; 10 mg/kg single i.v. dose) was “significant toxicity” and the body weight loss ([1]; 10 mg/kg single i.v. dose) was “greater than 20%”. The “increase in affinity relative to parent homing peptide” value (SORT1) was ~2.5 ×, the formulation screen result ([2]; 25 mM Histidine 10% sucrose pH 7) was “clear solution” and the formulation screen result ([2]; 50 mM HEPES 10% sucrose pH 7) was “clear solution”. For the same compound, the formulation screen result ([2]; 50 mM acetate/acetic acid, 10% sucrose pH 5) was “clear solution”, the formulation screen result ([2]; 1x PBS pH 7.4) was “clear solution” and the formulation screen result ([2]; Saline) was “clear solution”. The blood neutrophil counts [3] was “reduced neutrophil counts”.
